Values joined by “and” are separate entries in the source; they are usually repeats but may differ in a detail not shown here. Equal entries are not always repeated.
Assays:
Type in all cases: binding
Conditions in all cases: response relative to ADIFAB2
[1] = Probe fluorescence ratio response to arachidonic acid relative to ADIFAB2
Text: (§1) In an alternate preferred embodiment, the protein is rI-FABP that has Ala substituted for Leu at position 72 (rI-FABP-L72A) with the resulting probe named ADIFAB2. […] Other probes useful in embodiments of the invention are shown in Tables 1-6 and are also described in U.S. application Ser. No. 11/085,792, filed Mar. 21, 2005 which is incorporated herein by reference. The indicated substitutions are with reference to the ADIFAB protein of SEQ ID NO: 2.
(§2) ADIFAB2 also has an altered spectral response, making it especially useful for measurements of FFAu in blood samples (Apple et al, Clinical Proteomics, (2004) 1:41-44, U.S. patent application Ser. No. 10/670,958). The wavelengths at the maximum intensities emitted by these fluorescently-labeled I-FABP's in the absence of FFA is about 420 to 480 nm. The emission wavelengths at the maximum intensities emitted by these fluorescently-labeled I-FABP's with FFA bound are between about 495 to 580 nm. Experiments typically involve measuring the fluorescence response within both emission maxima or at wavelengths for which the effect of interfering molecules such as hemoglobin can be eliminated as described in U.S. application Ser. No. 10/670958 and PCT/US2004/030521 and the calculation of the ratio ‘R’ of the two fluorescence intensities. The baseline value for this ratio, measured in the absence of analyte, is designated R0.
(§3) The intensity ratio (“R” value) is determined as follows. The ratio is calculated using the following formula: R=Fλ1/Fλ2 wherein, Fλ1 is the measured fluorescence intensities (intensity of sample with probe present minus intensity of sample without probe present) at wavelength 1 and Fλ2 is the measured fluorescence intensities (intensity of sample with probe present minus intensity of sample without probe present) at wavelength 2. Then, for a given probe, ΔR, the difference in R value between the measurement in the presence of the test compound (agent) and in the absence of the test compound (agent), is calculated as follows: ΔR=R+agent−R0 In some embodiments, the ΔR value may then be compared to some reference, for example, an agent with a known affinity for a given probe, by ΔR/ΔRreference. Measurements of fluorescence intensities are obtained using standard techniques.

[2] = Probe fluorescence ratio response to linolenic acid relative to ADIFAB2
Text: as §1, §2, §3

[3] = Probe fluorescence ratio response to linoleic acid relative to ADIFAB2
Text: as §1, §2, §3

[4] = Probe fluorescence ratio response to oleic acid relative to ADIFAB2
Text: as §1, §2, §3

[5] = Probe fluorescence ratio response to palmitic acid relative to ADIFAB2
Text: as §1, §2, §3

B1: 117E, 72A (protein, listed as Rattus norvegicus)
chain: AFDGTWKVDRNENYEKFMEKMGINVVKRKLGAHDNLKLTITQEGNKFTVKESSNFRNIDVVFELGVDFAYSAADGTELTGTWTMEGNKLVGKFKRVDNGKELIAVREISGNELIQTETYEGVEAKRIFKKE
modifications: PEPTIDE (1)...(131) wild-type rat intestinal fatty acid binding protein
With B1 the “DR/DR AA” value ([1]; arachidonic acid) was 0.65 and 0.656, the “DR/DR LNA” value [2] was 0.64 and 0.638 and the “DR/DR LA” value [3] was 0.76 and 0.753. The “DR/DR OA” value [4] was 0.65 and 0.659 and the “DR/DR PA” value [5] was 0.40 and 0.402.

B2: 117G, 72A (protein, listed as Rattus norvegicus)
chain: AFDGTWKVDRNENYEKFMEKMGINVVKRKLGAHDNLKLTITQEGNKFTVKESSNFRNIDVVFELGVDFAYSAADGTELTGTWTMEGNKLVGKFKRVDNGKELIAVREISGNELIQTGTYEGVEAKRIFKKE
modifications: PEPTIDE (1)...(131) wild-type rat intestinal fatty acid binding protein
With B2 the “DR/DR AA” value ([1]; arachidonic acid) was 0.88, the “DR/DR LNA” value [2] was 0.85 and the “DR/DR LA” value [3] was 0.92. The “DR/DR OA” value [4] was 0.84 and the “DR/DR PA” value [5] was 0.39.

B3: 117H, 72A (protein, listed as Rattus norvegicus)
chain: AFDGTWKVDRNENYEKFMEKMGINVVKRKLGAHDNLKLTITQEGNKFTVKESSNFRNIDVVFELGVDFAYSAADGTELTGTWTMEGNKLVGKFKRVDNGKELIAVREISGNELIQTHTYEGVEAKRIFKKE
modifications: PEPTIDE (1)...(131) wild-type rat intestinal fatty acid binding protein
In the case of B3, the “DR/DR AA” value ([1]; arachidonic acid) is reported as 0.90 and 0.913, the “DR/DR LNA” value [2] is reported as 0.94 and 0.924 and the “DR/DR LA” value [3] is reported as 1.06 and 1.056. For the same molecule, the “DR/DR OA” value [4] was 1.01 and 1.012 and the “DR/DR PA” value [5] was 0.63 and 0.659.

B4: 74F, 72A (protein, listed as Rattus norvegicus)
chain: AFDGTWKVDRNENYEKFMEKMGINVVKRKLGAHDNLKLTITQEGNKFTVKESSNFRNIDVVFELGVDFAYSAAFGTELTGTWTMEGNKLVGKFKRVDNGKELIAVREISGNELIQTYTYEGVEAKRIFKKE
modifications: PEPTIDE (1)...(131) wild-type rat intestinal fatty acid binding protein
For B4, the “DR/DR AA” value ([1]; Arachidonic acid) was 1.02, the “DR/DR AA” value ([1]; arachidonic acid) was 0.44 and the “DR/DR LNA” value [2] was 1.36 and 1.04. The “DR/DR LA” value [3] was 1.19 and 0.67 and the “DR/DR PA” value [5] was 1.23 and 0.93.

B5: 117Q, 72A (protein, listed as Rattus norvegicus)
chain: AFDGTWKVDRNENYEKFMEKMGINVVKRKLGAHDNLKLTITQEGNKFTVKESSNFRNIDVVFELGVDFAYSAADGTELTGTWTMEGNKLVGKFKRVDNGKELIAVREISGNELIQTQTYEGVEAKRIFKKE
modifications: PEPTIDE (1)...(131) wild-type rat intestinal fatty acid binding protein
In the case of B5, the “DR/DR AA” value ([1]; arachidonic acid) is reported as 1.21 and 1.214, the “DR/DR LNA” value [2] is reported as 1.24 and 1.236 and the “DR/DR LA” value [3] is reported as 1.37 and 1.374. For the same molecule, the “DR/DR OA” value [4] was 1.13 and 1.134 and the “DR/DR PA” value [5] was 0.63 and 0.631.

B6: 117M, 72A (protein, listed as Rattus norvegicus)
chain: AFDGTWKVDRNENYEKFMEKMGINVVKRKLGAHDNLKLTITQEGNKFTVKESSNFRNIDVVFELGVDFAYSAADGTELTGTWTMEGNKLVGKFKRVDNGKELIAVREISGNELIQTMTYEGVEAKRIFKKE
modifications: PEPTIDE (1)...(131) wild-type rat intestinal fatty acid binding protein
With B6 the “DR/DR AA” value ([1]; arachidonic acid) was 1.27, the “DR/DR LNA” value [2] was 1.36 and the “DR/DR LA” value [3] was 1.31. For the same molecule, the “DR/DR OA” value [4] was 1.32 and the “DR/DR PA” value [5] was 1.14.

B7: 117L, 72A (protein, listed as Rattus norvegicus)
chain: AFDGTWKVDRNENYEKFMEKMGINVVKRKLGAHDNLKLTITQEGNKFTVKESSNFRNIDVVFELGVDFAYSAADGTELTGTWTMEGNKLVGKFKRVDNGKELIAVREISGNELIQTLTYEGVEAKRIFKKE
modifications: PEPTIDE (1)...(131) wild-type rat intestinal fatty acid binding protein
In the case of B7, the “DR/DR AA” value ([1]; arachidonic acid) is reported as 0.38, the “DR/DR LNA” value [2] is reported as 0.39 and the “DR/DR LA” value [3] is reported as 0.43. The “DR/DR OA” value [4] was 0.35 and the “DR/DR PA” value [5] was 0.29.

B8: 117F, 72A (protein, listed as Rattus norvegicus)
chain: AFDGTWKVDRNENYEKFMEKMGINVVKRKLGAHDNLKLTITQEGNKFTVKESSNFRNIDVVFELGVDFAYSAADGTELTGTWTMEGNKLVGKFKRVDNGKELIAVREISGNELIQTFTYEGVEAKRIFKKE
modifications: PEPTIDE (1)...(131) wild-type rat intestinal fatty acid binding protein
With B8 the “DR/DR AA” value ([1]; arachidonic acid) was 1.33, the “DR/DR LNA” value [2] was 1.38 and the “DR/DR LA” value [3] was 1.36. The “DR/DR OA” value [4] was 1.37 and the “DR/DR PA” value [5] was 1.20.

B9: 102D, 72A (protein, listed as Rattus norvegicus)
chain: AFDGTWKVDRNENYEKFMEKMGINVVKRKLGAHDNLKLTITQEGNKFTVKESSNFRNIDVVFELGVDFAYSAADGTELTGTWTMEGNKLVGKFKRVDNGKEDIAVREISGNELIQTYTYEGVEAKRIFKKE
modifications: PEPTIDE (1)...(131) wild-type rat intestinal fatty acid binding protein
In the case of B9, the “DR/DR AA” value ([1]; arachidonic acid) is reported as 0.52, the “DR/DR LNA” value [2] is reported as 0.61 and the “DR/DR LA” value [3] is reported as 0.63. The “DR/DR OA” value [4] was 0.59 and the “DR/DR PA” value [5] was 0.28.

B10: 117P, 72A (protein, listed as Rattus norvegicus)
chain: AFDGTWKVDRNENYEKFMEKMGINVVKRKLGAHDNLKLTITQEGNKFTVKESSNFRNIDVVFELGVDFAYSAADGTELTGTWTMEGNKLVGKFKRVDNGKELIAVREISGNELIQTPTYEGVEAKRIFKKE
modifications: PEPTIDE (1)...(131) wild-type rat intestinal fatty acid binding protein
With B10 the “DR/DR AA” value ([1]; arachidonic acid) was 0.80, the “DR/DR LNA” value [2] was 0.83 and the “DR/DR LA” value [3] was 0.86. For the same molecule, the “DR/DR OA” value [4] was 0.73 and the “DR/DR PA” value [5] was 0.38.

B11: 117N, 72A (protein, listed as Rattus norvegicus)
chain: AFDGTWKVDRNENYEKFMEKMGINVVKRKLGAHDNLKLTITQEGNKFTVKESSNFRNIDVVFELGVDFAYSAADGTELTGTWTMEGNKLVGKFKRVDNGKELIAVREISGNELIQTNTYEGVEAKRIFKKE
modifications: PEPTIDE (1)...(131) wild-type rat intestinal fatty acid binding protein
In the case of B11, the “DR/DR AA” value ([1]; arachidonic acid) is reported as 1.33, the “DR/DR LNA” value [2] is reported as 1.37 and the “DR/DR LA” value [3] is reported as 1.35. The “DR/DR OA” value [4] was 1.40 and the “DR/DR PA” value [5] was 1.19.

B12: 117R, 72A (protein, listed as Rattus norvegicus)
chain: AFDGTWKVDRNENYEKFMEKMGINVVKRKLGAHDNLKLTITQEGNKFTVKESSNFRNIDVVFELGVDFAYSAADGTELTGTWTMEGNKLVGKFKRVDNGKELIAVREISGNELIQTRTYEGVEAKRIFKKE
modifications: PEPTIDE (1)...(131) wild-type rat intestinal fatty acid binding protein
With B12 the “DR/DR AA” value ([1]; arachidonic acid) was 0.64, the “DR/DR LNA” value [2] was 0.70 and the “DR/DR LA” value [3] was 0.70. For the same molecule, the “DR/DR OA” value [4] was 0.61 and the “DR/DR PA” value [5] was 0.31.

B13: 117K, 72A (protein, listed as Rattus norvegicus)
chain: AFDGTWKVDRNENYEKFMEKMGINVVKRKLGAHDNLKLTITQEGNKFTVKESSNFRNIDVVFELGVDFAYSAADGTELTGTWTMEGNKLVGKFKRVDNGKELIAVREISGNELIQTKTYEGVEAKRIFKKE
modifications: PEPTIDE (1)...(131) wild-type rat intestinal fatty acid binding protein
For B13, the “DR/DR AA” value ([1]; arachidonic acid) was 0.34, the “DR/DR LNA” value [2] was 0.37 and the “DR/DR LA” value [3] was 0.43. The “DR/DR OA” value [4] was 0.04 and the “DR/DR PA” value [5] was 0.22.

B14: 117I, 72A (protein, listed as Rattus norvegicus)
chain: AFDGTWKVDRNENYEKFMEKMGINVVKRKLGAHDNLKLTITQEGNKFTVKESSNFRNIDVVFELGVDFAYSAADGTELTGTWTMEGNKLVGKFKRVDNGKELIAVREISGNELIQTITYEGVEAKRIFKKE
modifications: PEPTIDE (1)...(131) wild-type rat intestinal fatty acid binding protein
For B14, the “DR/DR AA” value ([1]; arachidonic acid) was 0.68 and 0.674, the “DR/DR LNA” value [2] was 0.68 and 0.666 and the “DR/DR LA” value [3] was 0.80 and 0.789. For the same molecule, the “DR/DR OA” value [4] was 0.67 and 0.676 and the “DR/DR PA” value [5] was 0.41 and 0.408.
